These results are taken from paper PMC1450317.

This assay deals with T1, TSLP receptor (TSLPR) (mouse (endogenous in mouse thymocytes)) (UniProt Q8CII9).
T1 sequence: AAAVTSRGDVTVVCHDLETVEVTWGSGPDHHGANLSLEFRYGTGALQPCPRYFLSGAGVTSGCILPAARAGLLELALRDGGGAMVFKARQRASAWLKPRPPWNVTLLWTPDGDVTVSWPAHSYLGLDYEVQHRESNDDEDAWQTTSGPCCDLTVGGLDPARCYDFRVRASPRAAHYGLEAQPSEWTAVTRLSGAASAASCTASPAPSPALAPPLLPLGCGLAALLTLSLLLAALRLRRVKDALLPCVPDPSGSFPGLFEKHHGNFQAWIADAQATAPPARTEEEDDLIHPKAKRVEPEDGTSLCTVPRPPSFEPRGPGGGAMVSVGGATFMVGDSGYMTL

B1: thymic stromal derived lymphopoietin (TSLP), recombinant mouse (ligand)
chain: YNFSNCNFTSITKIYCNIIFHDLTGDLKGAKFEQIEDCESKPACLLKIEYYTLNPIPGCPSLPDKTFARRTREALNDHCPGYPETERNDGTQEMAQEVQNICLNQTSQILRLWYSFMQSPE
B1 showed a FoxP3 mRNA (real-time PCR, FoxP3/18S) in purified CD4+CD8-CD25+ adult thymocytes cultured with TSLP for two days of 2 fold and a FoxP3 mRNA (real-time PCR, FoxP3/18S) in purified CD4+CD8-CD25- adult thymocytes cultured with TSLP for two days of 10 fold.
